Experimental findings from patent US20200407715 are described below.

The subject of data set [1] is T1, Cas12i1 (IVTT-expressed) (uncultured freshwater metagenome).
T1 sequence: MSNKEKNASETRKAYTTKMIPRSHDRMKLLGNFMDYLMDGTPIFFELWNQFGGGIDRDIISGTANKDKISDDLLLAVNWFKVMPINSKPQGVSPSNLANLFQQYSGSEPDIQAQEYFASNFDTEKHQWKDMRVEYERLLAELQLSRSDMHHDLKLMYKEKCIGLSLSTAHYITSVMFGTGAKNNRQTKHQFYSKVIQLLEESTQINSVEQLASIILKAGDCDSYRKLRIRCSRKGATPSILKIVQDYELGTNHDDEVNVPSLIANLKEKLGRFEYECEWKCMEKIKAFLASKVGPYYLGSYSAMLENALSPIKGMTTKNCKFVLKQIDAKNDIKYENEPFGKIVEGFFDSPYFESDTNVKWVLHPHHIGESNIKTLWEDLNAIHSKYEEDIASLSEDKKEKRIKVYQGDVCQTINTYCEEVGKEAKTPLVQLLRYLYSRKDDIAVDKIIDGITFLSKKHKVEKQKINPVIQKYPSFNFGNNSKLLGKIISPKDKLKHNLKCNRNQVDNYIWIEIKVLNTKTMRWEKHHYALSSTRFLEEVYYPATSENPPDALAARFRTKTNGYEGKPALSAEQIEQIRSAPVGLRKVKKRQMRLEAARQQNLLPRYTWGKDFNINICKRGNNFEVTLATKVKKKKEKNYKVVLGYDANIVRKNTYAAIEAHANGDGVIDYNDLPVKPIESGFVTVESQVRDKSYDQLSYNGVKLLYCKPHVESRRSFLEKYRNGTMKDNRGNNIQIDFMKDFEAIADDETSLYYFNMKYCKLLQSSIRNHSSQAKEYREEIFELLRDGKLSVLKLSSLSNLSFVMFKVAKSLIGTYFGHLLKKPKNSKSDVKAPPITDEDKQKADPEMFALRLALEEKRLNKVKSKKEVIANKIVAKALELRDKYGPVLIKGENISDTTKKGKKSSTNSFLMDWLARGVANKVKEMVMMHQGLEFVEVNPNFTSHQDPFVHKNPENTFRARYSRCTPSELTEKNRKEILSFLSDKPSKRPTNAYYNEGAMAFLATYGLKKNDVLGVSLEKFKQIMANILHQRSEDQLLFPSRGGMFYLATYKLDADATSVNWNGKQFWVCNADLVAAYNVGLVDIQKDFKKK
The settings on record: IVTT gene silencing.

Data set [2] shares this test system. To be noted: IVTT gene silencing, after 400 min.
The subject of data set [3] is T2, Cas12i2 mammalian construct (uncultured freshwater lake metagenome).
T2 sequence: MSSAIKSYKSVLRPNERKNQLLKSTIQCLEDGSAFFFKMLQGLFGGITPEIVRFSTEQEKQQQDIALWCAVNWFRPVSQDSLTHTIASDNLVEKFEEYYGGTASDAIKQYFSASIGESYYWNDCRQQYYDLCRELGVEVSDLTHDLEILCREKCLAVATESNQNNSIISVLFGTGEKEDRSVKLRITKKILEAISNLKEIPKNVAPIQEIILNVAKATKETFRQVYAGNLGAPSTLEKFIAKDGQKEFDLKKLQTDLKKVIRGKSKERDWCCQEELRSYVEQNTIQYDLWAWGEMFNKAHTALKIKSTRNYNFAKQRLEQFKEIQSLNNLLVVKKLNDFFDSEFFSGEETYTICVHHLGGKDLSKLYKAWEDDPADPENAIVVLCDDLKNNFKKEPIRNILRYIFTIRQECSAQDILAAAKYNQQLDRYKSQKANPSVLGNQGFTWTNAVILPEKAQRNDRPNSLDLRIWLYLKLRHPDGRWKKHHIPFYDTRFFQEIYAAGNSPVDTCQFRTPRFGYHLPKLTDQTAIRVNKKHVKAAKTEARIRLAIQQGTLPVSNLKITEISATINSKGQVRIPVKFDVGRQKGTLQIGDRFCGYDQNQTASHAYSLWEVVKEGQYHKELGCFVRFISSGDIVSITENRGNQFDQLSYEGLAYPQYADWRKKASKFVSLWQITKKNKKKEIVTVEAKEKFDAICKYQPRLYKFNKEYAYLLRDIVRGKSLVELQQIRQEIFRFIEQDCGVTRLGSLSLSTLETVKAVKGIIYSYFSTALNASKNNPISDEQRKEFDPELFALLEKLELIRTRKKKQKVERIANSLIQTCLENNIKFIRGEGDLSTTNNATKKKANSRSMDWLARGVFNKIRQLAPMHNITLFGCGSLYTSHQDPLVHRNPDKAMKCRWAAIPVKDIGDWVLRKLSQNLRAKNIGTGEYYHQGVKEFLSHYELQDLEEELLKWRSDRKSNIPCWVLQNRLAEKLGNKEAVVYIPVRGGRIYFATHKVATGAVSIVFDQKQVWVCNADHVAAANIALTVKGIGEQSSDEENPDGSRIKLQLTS
In words: cell_activity. The settings on record: PAM TTC; 293T cells, 72 h; indels centred around +20 from PAM.

Where two headings read alike, the source gives them in different places.

In turn, “GFP guide complementary to coding strand ; GFP plasmid (sigma 28 promoter)” came in with an activity (fold GFP depletion) in data set [1] of over 4.

“GFP guide complementary to template strand ; GFP plasmid (sigma 28 promoter)”: the activity (fold GFP depletion) in data set [2] was determined as 2. For the substance “VEGFA guide for Cas12i2 (pre-crRNA) ; VEGFA locus target, TTC PAM”, the activity in data set [3] worked out at 13 % indel.
